{
  "source": "the RNAGym collection of RNA variant scans (doi:10.1093/molbev/msab373)",
  "parents": {"B1": {"name": "Azoarcus group I ribozyme (parent)", "chain": "GUGCCUUGCGCCGGGAAACCACGCAAGGGAUGGUGUCAAAUUCGGCGAAACCUAAGCGCCCGCCCGGGCGUAUGGCAACGCCGAGCCAAGCUUCGGCGCCUGCGCCGAUGAAGGUGUAGAGACUAGACGGCACCCACCUAAGGCAAACGCUAUGGUGAAGGCAUAGUCCAGGGAGUGGCGAAAGUCACACAAACCGG"}},
  "data": [
    {"variants_of": "B1", "test": "reverse-splicing fitness (ratio to wild type); higher = more active; in vitro selection; Mg2+ level not given", "outline": "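An in vitro group I ribozyme library with randomized positions was T7-transcribed and gel-purified. In triplicate, 10 pmol RNA in EPPS pH 7.5 was reacted with 50 pmoles of a 30-nt RNA substrate for 1 h at 37 °C across several added MgCl2 levels (1–48 mM), then stopped with EDTA. Products were reverse transcribed from a substrate-complementary primer, PCR-amplified and sequenced (HiSeq 4000). Fitness is a variant's read proportion after selection over that before, normalised to wild type.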", "values": [
      {"variant": "C82U A120U A145G C150U C169A", "reverse-splicing fitness": 0.00495},
      {"variant": "C82U A120U A145G C150U C169U", "reverse-splicing fitness": 0.00625},
      {"variant": "C82U A120U A145G C150U C169G", "reverse-splicing fitness": 0.00546},
      {"variant": "C82U A120U A145U C150G C169U U176C", "reverse-splicing fitness": 0.00297},
      {"variant": "C82U A120U A145U C150G C169U U176A", "reverse-splicing fitness": 0.00257},
      {"variant": "C82U A120U A145U C150G C169U U176G", "reverse-splicing fitness": 0.00186},
      {"variant": "C82U A120U A145G C150G", "reverse-splicing fitness": 0.0229},
      {"variant": "C82U A120U A145G C150A", "reverse-splicing fitness": 0.0257},
      {"variant": "C82U A120U A145G C150U", "reverse-splicing fitness": 0.137},
      {"variant": "C82U A120U A145U C150U C169A U176G", "reverse-splicing fitness": 0.0019},
      {"variant": "C82U A120U A145U C150U C169A U176C", "reverse-splicing fitness": 0.00256},
      {"variant": "C82U A120U A145U C150U C169A U176A", "reverse-splicing fitness": 0.00262},
      {"variant": "C82U A120U A145G C169G U176G", "reverse-splicing fitness": 0.00136},
      {"variant": "C82U A120U A145G C169G U176C", "reverse-splicing fitness": 0.00346},
      {"variant": "C82U A120U A145G C169G U176A", "reverse-splicing fitness": 0.00271},
      {"variant": "C82U A120U C150U C169U", "reverse-splicing fitness": 0.00548},
      {"variant": "C82U A120U C150U C169A", "reverse-splicing fitness": 0.00404},
      {"variant": "C82U A120U C150U C169G", "reverse-splicing fitness": 0.00457},
      {"variant": "C82U A120U A145C C150U U176A", "reverse-splicing fitness": 0.0114},
      {"variant": "C82U A120U A145C C150U U176C", "reverse-splicing fitness": 0.0162},
      {"variant": "C82U A120U A145C C150U U176G", "reverse-splicing fitness": 0.00482},
      {"variant": "C82U A145G C150A", "reverse-splicing fitness": 0.103},
      {"variant": "C82U A145G C150G", "reverse-splicing fitness": 0.0812},
      {"variant": "C82U A120U A145G", "reverse-splicing fitness": 0.167},
      {"variant": "C82U A120U A145U", "reverse-splicing fitness": 0.181},
      {"variant": "C82U A120U A145C C150A C169U", "reverse-splicing fitness": 0.00232},
      {"variant": "C82U A120U U176C", "reverse-splicing fitness": 0.0796},
      {"variant": "C82U A120U U176G", "reverse-splicing fitness": 0.0137},
      {"variant": "C82U A120U U176A", "reverse-splicing fitness": 0.0428},
      {"variant": "C82U A120U A145C C150A C169U U176G", "reverse-splicing fitness": 0.00151},
      {"variant": "C82U A120U A145C C150A C169U U176C", "reverse-splicing fitness": 0.00195},
      {"variant": "C82U A120U A145C C150A C169U U176A", "reverse-splicing fitness": 0.00218},
      {"variant": "C82U A145C C150A C169G", "reverse-splicing fitness": 0.00677},
      {"variant": "C82U A145C C150A C169A", "reverse-splicing fitness": 0.00751},
      {"variant": "C82U A145C C150A C169U", "reverse-splicing fitness": 0.00854},
      {"variant": "C82U A120U A145C C150G", "reverse-splicing fitness": 0.0193},
      {"variant": "C82U A120U A145C C150U", "reverse-splicing fitness": 0.0391},
      {"variant": "C82U A120U A145C C150G C169G U176C", "reverse-splicing fitness": 0.0019},
      {"variant": "C82U A120U A145C C150G C169G U176G", "reverse-splicing fitness": 0.00188},
      {"variant": "C82U A120U A145C C150G C169G U176A", "reverse-splicing fitness": 0.00206},
      {"variant": "C82U A120U A145G C150A U176C", "reverse-splicing fitness": 0.0141},
      {"variant": "C82U A120U A145G C150A U176G", "reverse-splicing fitness": 0.00354},
      {"variant": "C82U A120U A145G C150A U176A", "reverse-splicing fitness": 0.0113},
      {"variant": "C82U A145C C150G", "reverse-splicing fitness": 0.0813},
      {"variant": "C82U A145C C150A", "reverse-splicing fitness": 0.0351},
      {"variant": "C82U A145C C150U", "reverse-splicing fitness": 0.172},
      {"variant": "C82U A120U A145C C150A C169G U176G", "reverse-splicing fitness": 0.00161},
      {"variant": "C82U A120U A145C C150A C169G U176A", "reverse-splicing fitness": 0.00223},
      {"variant": "C82U A120U A145C C150A C169G U176C", "reverse-splicing fitness": 0.00196},
      {"variant": "C82U A120U A145G C150G C169A U176C", "reverse-splicing fitness": 0.00568},
      {"variant": "C82U A120U A145G C150G C169A U176A", "reverse-splicing fitness": 0.0107},
      {"variant": "C82U A120U A145G C150G C169A U176G", "reverse-splicing fitness": 0.00459},
      {"variant": "C82U A145G C150G C169A", "reverse-splicing fitness": 0.00942},
      {"variant": "C82U A145C C150U C169A U176A", "reverse-splicing fitness": 0.00827},
      {"variant": "C82U A145C C150U C169A U176G", "reverse-splicing fitness": 0.00518},
      {"variant": "C82U A145C C150U C169A U176C", "reverse-splicing fitness": 0.00467},
      {"variant": "C82U A120U A145C C150U C169G U176A", "reverse-splicing fitness": 0.00259},
      {"variant": "C82U A120U A145C C150U C169G U176G", "reverse-splicing fitness": 0.00153},
      {"variant": "C82U A120U A145C C150U C169G U176C", "reverse-splicing fitness": 0.00188},
      {"variant": "C82U A145C C150U C169G", "reverse-splicing fitness": 0.00634},
      {"variant": "C82U A145C C150U C169U", "reverse-splicing fitness": 0.00874},
      {"variant": "C82U A145C C150U C169A", "reverse-splicing fitness": 0.00695},
      {"variant": "C82U A120U A145U C150U", "reverse-splicing fitness": 0.106},
      {"variant": "C82U A120U A145U C150G", "reverse-splicing fitness": 0.0184},
      {"variant": "C82U A120U A145U C150A", "reverse-splicing fitness": 0.0156},
      {"variant": "C82U A145C C150U C169G U176G", "reverse-splicing fitness": 0.0047},
      {"variant": "C82U A145C C150U C169G U176C", "reverse-splicing fitness": 0.00881},
      {"variant": "C82U A145C C150U C169G U176A", "reverse-splicing fitness": 0.0158},
      {"variant": "C82U A120U A145C C150G U176C", "reverse-splicing fitness": 0.00864},
      {"variant": "C82U A120U A145C C150G U176A", "reverse-splicing fitness": 0.0055},
      {"variant": "C82U A120U A145C C150G U176G", "reverse-splicing fitness": 0.00242},
      {"variant": "C82U A120U A145U C169A", "reverse-splicing fitness": 0.00208},
      {"variant": "C82U A120U A145U C169U", "reverse-splicing fitness": 0.00594},
      {"variant": "C82U A120U A145U C169G", "reverse-splicing fitness": 0.00533},
      {"variant": "C82U A120U A145C C169U", "reverse-splicing fitness": 0.00535},
      {"variant": "C82U A120U A145C C169A", "reverse-splicing fitness": 0.00174},
      {"variant": "C82U A120U A145C C169G", "reverse-splicing fitness": 0.00426},
      {"variant": "C82U A120U A145U C169A U176G", "reverse-splicing fitness": 0.00174},
      {"variant": "C82U A120U A145U C169A U176A", "reverse-splicing fitness": 0.00185},
      {"variant": "C82U A120U A145U C169A U176C", "reverse-splicing fitness": 0.00166},
      {"variant": "C82U A120U C150G C169G U176A", "reverse-splicing fitness": 0.00396},
      {"variant": "C82U A120U C150G C169G U176G", "reverse-splicing fitness": 0.0022},
      {"variant": "C82U A120U C150G C169G U176C", "reverse-splicing fitness": 0.00212}
    ]}
  ]
}
